From article PMC7781310

Experiments:
[1] = target: Wild type sACE2_(2)-IgG1 (human) (UniProt Q9BYF1); test: BLI
[2] = target: sACE2_(2).v2.4-IgG1 (human) (UniProt Q9BYF1); test: BLI

| Substance | Kd [1] | koff [1] | Kd [2] | koff [2] |
| --- | --- | --- | --- | --- |
| LYRa11 RBD-8h (domain or fragment) | 91 nM | 0.079 s⁻¹ | 1.8 nM | 0.0025 s⁻¹ |
| Rs4084 RBD-8h (domain or fragment) | 85 nM | 0.025 s⁻¹ | 3.1 nM | 0.0015 s⁻¹ |
| Rs4231 RBD-8h (domain or fragment) | 69 nM | 0.022 s⁻¹ | 3.5 nM | 0.0016 s⁻¹ |
| Rs7327 RBD-8h (domain or fragment) | 63 nM | 0.04 s⁻¹ | 1.9 nM | 0.0018 s⁻¹ |
| RsSHC014 RBD-8h (domain or fragment) | – | – | – | 0.002 s⁻¹ |
